Source: patent publication US20240150443A1, “[…] MEASLES VIRUS” (The Trustees of Columbia University in the City of New York, priority 2021, published 2024)

T1: MeV IC323 F (pre-fusion, on transfected HEK293T cells) (Measles virus strain IC323, UniProt Q786F3 24-550)
T1 construct: whole, on cells; also called pCAGGS-MeV IC323 F; MeV F
T1 sequence: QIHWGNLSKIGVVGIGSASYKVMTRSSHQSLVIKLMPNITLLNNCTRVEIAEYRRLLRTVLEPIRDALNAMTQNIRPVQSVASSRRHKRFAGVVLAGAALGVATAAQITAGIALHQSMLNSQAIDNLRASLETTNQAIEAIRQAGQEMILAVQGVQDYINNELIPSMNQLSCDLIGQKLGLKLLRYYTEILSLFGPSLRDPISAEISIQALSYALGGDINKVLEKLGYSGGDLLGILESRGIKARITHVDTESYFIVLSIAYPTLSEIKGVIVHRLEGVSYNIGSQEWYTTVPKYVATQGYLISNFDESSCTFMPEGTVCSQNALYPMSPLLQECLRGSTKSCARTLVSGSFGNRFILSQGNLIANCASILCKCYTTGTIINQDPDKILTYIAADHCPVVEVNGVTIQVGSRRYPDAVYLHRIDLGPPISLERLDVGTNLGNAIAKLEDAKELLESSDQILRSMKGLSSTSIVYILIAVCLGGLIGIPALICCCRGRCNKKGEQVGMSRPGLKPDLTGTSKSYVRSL

B1: single-chain variable fragment (scFv) derived from anti-MeV F mAb 77.4 (scFv)
scFv: MDVQLQESGPGLVKPSQSLSLTCTVSGYSITSDYAWNWIRQFPGNKLEWMGYISYTLTTGYNPSLKSRISITRDSSKNQFFLQLNSVTTEDTATYYCARSGWLLPYWYFDVWGAGTTVTVSSGGGGSGGGSGGGGSDVQITQSPSYLAASPGETITINCRASKSISKYLAWYQEKPGKTNELLIYSGSTLQSGIPSRFRGSGSGTDFTLTISSLEPEDFAMYYCQQHNEYTLTFGGGTKLELKRHHHHHH
notes: also called mAb 77.4-derived scFv
B2: scFv: single-chain fragment made by fusing VH and VL of mAb 77.4 via G4S linker, 6x-histidine tag; SEQ ID NO:3 (protein)
scFv: B1 scFv
modifications: 6x His tag; single-chain variable fragment antibody

Key:
[1] = target: T1, MeV IC323 F (pre-fusion, on transfected …); test: immunofluorescence of transfected HEK293T cells, Alexa 488 anti 6-histidine antibody
MeV WTFb = test: In vivo prophylaxis against MeV infection in cotton rats (scFv, intranasal); set-up: species or system cotton rats (Sigmodon hispidus)
Method: To assess anti-MeV prophylaxis by the scFv in vivo, we used cotton rats (CR) as an infection model. The scFv antibody construct was administrated via intranasal delivery 24 and 12 h before infection. Four days after infection, the animals were euthanized, and the viral titers in the animals' lungs were quantified.
Cotton rats were infected intranasally with 10^5 TCID50/ml of MeV WTFb. Animals received either the indicated amount of mAb 77.4-derived scFv construct (n=4) or vehicle (n=8) 24 h and 12 h prior to infection. Animals were euthanized 5 days after infection. Lungs were collected and homogenized for TCID50 titration. Results are presented as TCID50/g of lung. Statistical analyses were performed using the Mann-Whitney U-test.
In vivo experiments: Cotton rats. Inbred cotton rats (Sigmodon hispidus) were purchased from Envigo, Inc., Indianapolis. Both male and female cotton rats aged 5 to 7 weeks were used. For infection, 10^5 TCID50 of MeV (strain WTFb) was inoculated intranasally to isofluorane-anesthetised cotton rats in a volume of 100 μl. Treatment was performed in the same way at the indicated time points. Four days after infection, the animals were euthanized using CO2 inhalation, and their lungs were collected and weighed. Lung tissue was minced with scissors and homogenized with a glass dounce homogenizer. Vero-SLAM cells were inoculated with serial 10-fold dilutions of supernatant fluids to assess the presence of infectious virus in 48-well plates using cytopathic effect (CPE) as an endpoint. Plates were scored for CPE microscopically after 7 days, and the TCID50 was calculated as described previously^43.

[2] = target: MeV G954 H/F fusion complex (Measles virus, UniProt Q786F3, H419R/Q139R/R70K); settings: SLAM-bearing HEK293T target cells, 6 h
Method: (§1) To assess the specificity of the scFV derived from mAb 77.4 for MeV F, cells expressing either MeV IC323 F or the human parainfluenza virus 3 fusion protein (HPIV3 F) were incubated with the scFv and subjected to immunofluorescence using a fluorescently-labeled Alexa 488 anti 6-histidine antibody (FIG. 3E-F). […] Finally, we assessed whether the scFv blocked cell-cell fusion mediated by either MeV IC323 or G954 H/F fusion complexes (FIG. 3G). For this experiment we used a beta-galactosidase (β-Gal) complementation assay^18 that measures the fusion of cells that express viral envelope glycoproteins (MeV IC323 or G954 H/F) with cells that express the MeV receptor SLAM (FIG. 3G). HEK293T (“target cells”) were transiently transfected with SLAM and the omega reporter subunit of beta-galactosidase, and incubated for the indicated time period in the presence of different concentrations of inhibitors with “effector cells” co-expressing MeV G954 or IC323 H and F together with the alpha reporter subunit of beta-galactosidase. Fusion between the target and effector cells leads to reconstitution of beta-galactosidase activity, which we quantified using the luminescence-based Galacto-Star™ β-Galactosidase Reporter Gene kit (ThermoFisher, US).
(§2) (A) Sequence of the single-chain variable fragment antibody derived from anti-MeV F mAb 77.4. […] Images were obtained using epifluorescent microscopy 48 h post-infection (scale bar=200 μm). (C) HEK293T cells were transfected with either pCAGGS-HPIV3 F or MeV IC323 F and stained using scFv 24 h post-transfection (scale bar=200 μm). (D) Fusion of MeV G954 or IC323 H/F co-expressing cells with SLAM-bearing cells in the presence of scFv at indicated concentrations was quantified at 6 h using a β-galactosidase complementation assay.

[3] = target: MeV IC323 H/F fusion complex (Measles virus, UniProt Q786F3); settings: SLAM-bearing HEK293T target cells, 6 h
Method: as §1, §2

[4] = target: human parainfluenza virus 3 fusion protein (HPIV3 F) (Human parainfluenza 3 virus, UniProt P06828); settings: HEK293T, 24 h post-transfection
Method: as §1, §2

MeV IC323-EGFP = test: Viral spread / plaque enlargement assay in Vero-SLAM cells; assay type: cell-based, measles virus (MeV)
Method: In an effort to identify a more broadly reactive mAb, the neutralizing activity of two other previously identified mAbs, mAb 77.4 and mAb Y503, was assessed in the experiments shown in FIG. 1 I-K. Vero cells expressing the measles receptor SLAM (Vero-SLAM) were infected with MeV IC323-EGFP virus (the expression of fluorescent protein permits tracking of the spread of infection). Six hours post-infection, the cells were treated with serial dilutions of mAbs 77.4 or Y503.
(H-K) VeroSLAM cells were infected with MeV IC323-EGFP at a multiplicity of infection (MOI)=0.001. […] (K) MeV infection in Vero-SLAM cells either untreated (NT) or treated at the indicated dilution of supernatant fluids from hybridomas producing anti F-mAb 77.4 or mAb Y503 were quantified using fluorescent spectroscopy. Data are expressed as relative fluorescence units (RFUs).
The scFv was expressed in eukaryotic cells and purified by affinity purification using a 6×-hisitidine tag (see Materials and Methods). Vero-SLAM cells were infected with MeV IC323-EGFP virus and six hours post-infection, the cells were treated with serial dilutions of the scFv (62.5 μg/ml and 1.95 μg/ml are shown in 3C and CD) and immunofluorescent syncytium formation was measured to quantify viral spread 48 hours post-infection.
Plaque enlargement assay. […] Quantification was determined using fluorescent spectroscopy.

Row | Molecule | binding result [1] | lung infection (MeV WTFb; 0.5 mg/ml intranasal 24 and 12 h before infection) | lung infection (MeV WTFb; 1 mg/ml intranasal 24 and 12 h before infection) | viral titers in the lungs compared with untreated controls (MeV WTFb; intranasal 24 and 12 h before infection, doses 0.25, 0.5 and 1 mg/ml) | inhibition of cell fusion mediated by G954 H/F [2] | inhibition of cell fusion mediated by IC323 H/F [3] | recognition of cells expressing HPIV3 F by scFv [4] | inhibition of viral infection (syncytium formation) (MeV IC323-EGFP; Vero-SLAM, serial dilutions of scFv, 48 hours post-infection) | in vitro potency compared with the full antibody (mAb 77.4) (MeV IC323-EGFP; general statement, assay not specified)
1 | B1 | binds |  |  |  |  |  |  |  | 
2 | B2 |  | completely inhibited lung infection | completely inhibited lung infection | significantly reduced viral titers in the lungs | inhibited cell fusion | inhibited cell fusion | not those expressing HPIV3 F | clearly inhibited viral infection | less than that of the full antibody
